Reference: patent US20180155451A1 (published 2018)

T1: FcγRIIb (human, UniProt P31994 43-217)
T1 construct: extracellular domain; also called FcgRIIb; 2b
T1 sequence (looked up): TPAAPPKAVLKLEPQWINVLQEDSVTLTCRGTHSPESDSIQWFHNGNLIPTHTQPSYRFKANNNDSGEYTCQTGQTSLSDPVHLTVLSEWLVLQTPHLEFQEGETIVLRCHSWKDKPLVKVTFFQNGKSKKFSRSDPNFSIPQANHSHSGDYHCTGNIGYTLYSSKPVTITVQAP

T2: FcγRIIb extracellular domain with C-terminal His tag (human, UniProt P31994 43-217)
T2 construct: extracellular domain; also called 2b; FcgRIIb
T2 sequence (looked up): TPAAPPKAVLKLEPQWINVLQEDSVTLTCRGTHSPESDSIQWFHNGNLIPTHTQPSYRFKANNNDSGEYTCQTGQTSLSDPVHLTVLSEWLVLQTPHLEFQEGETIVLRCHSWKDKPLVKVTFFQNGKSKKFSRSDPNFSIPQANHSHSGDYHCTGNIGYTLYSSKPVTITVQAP


Assays:
FcγRIa = molecular target: T3, FcγRIa (human, UniProt P12314 16-292); test: SPR, captured antibody; relative to GpH7-A5/GpH7-B3/GpL16-k0
T3 construct: extracellular domain; also called FcgRI; 1a

FcγRIIb = molecular target: T1, FcγRIIb; test: as above
[1] = molecular target: T4, FcγRIIIa extracellular domain with C-terminal His tag (human, UniProt P08637 17-208); test: SPR, relative to GpH7-A5/GpH7-B3/GpL16-k0
T4 construct: extracellular domain; also called 3a; FcgRIIIa
Description: (§1) The heterodimerized antibodies He Abs in which one of the H chains was introduced with an alteration were assayed for their binding activities to each activating FcγR and inhibitory FcγR according to the method described in Example 4. […] The activating FcγRs in FIGS. 26, 27, 28, and 29 are FcγRIa, FcγRIIa (R), FcγRIIa (H), and FcγRIIIa, respectively.
(§2) Analysis of interaction between objective antibody and the FcγR was carried out using Biacore T100 (GE Healthcare). HBS-EP+ (GE Healthcare) was used as the running buffer, and the measurement temperature was set to 25° C. Chips produced by immobilizing the antigen peptide by the amine coupling method to a Series S Sencor Chip CM5 (GE Healthcare), or alternatively, chips produced by allowing preliminarily biotinylated antigen peptides to interact with and immobilize onto a Series S Sensor Chip SA (certified) (GE Healthcare) were used. Antibodies of interest were captured onto an antigen peptide-immobilized chip, and allowed to interact to each FcγR diluted with running buffer. To regenerate and repeatedly use the chip, the antibodies captured on the chip were washed off by reacting 10 mM glycine-HCl, pH 1.5.

[2] = molecular target: T2, FcγRIIb extracellular domain with …; test: SPR, relative to GpH7-A5/GpH7-B3/GpL16-k0
Description: as §1, §2

T3 sequence (P12314 16-292): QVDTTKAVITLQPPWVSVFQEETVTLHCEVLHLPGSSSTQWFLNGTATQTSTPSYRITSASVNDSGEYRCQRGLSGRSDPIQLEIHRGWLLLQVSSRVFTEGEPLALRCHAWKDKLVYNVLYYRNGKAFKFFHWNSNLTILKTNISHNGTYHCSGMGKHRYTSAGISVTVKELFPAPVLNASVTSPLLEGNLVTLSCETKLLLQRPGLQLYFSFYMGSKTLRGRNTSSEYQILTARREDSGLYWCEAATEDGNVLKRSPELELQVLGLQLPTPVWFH
T4 sequence (P08637 17-208): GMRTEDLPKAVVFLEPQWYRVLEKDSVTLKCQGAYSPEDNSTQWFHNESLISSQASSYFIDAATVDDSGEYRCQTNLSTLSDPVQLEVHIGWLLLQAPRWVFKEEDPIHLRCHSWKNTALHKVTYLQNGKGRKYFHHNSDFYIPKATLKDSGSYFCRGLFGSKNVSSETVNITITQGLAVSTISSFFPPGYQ

Row | He/Con_1a (FcγRIa) | He/Con_2b (FcγRIIb) | He/Con_3a [1] | He/Con_2b [2] | Binder
1 | 100 relative, HeCon Ab = 100 | 89.2 relative, HeCon Ab = 100 |  |  | GpH7-A5/GpH7-B3 variant (V266_19Q)/GpL16-k0 (antibody, human IgG1, kappa, IgG1 heterodimer, mutation in the GpH7-B3 chain only; also called He Ab) heavy 1: not shown heavy 2: not shown light: DIVMTQSPLSLPVTPGEPASISCQASESLVHSNRNTYLHWYLQKPGQSPQLLIYKVSNRFSGVPDRFSGSGSGTDFTLKISRVEAEDVGVYYCSQNTHVPPTFGQGTKVEIERTVAAPSVFIFPPSDEQLKSGTASVVCLLNNFYPREAKVQWKVDNALQSGNSQESVTEQDSKDSTYSLSSTLTLSKADYEKHKVYACEVTHQGLSSPVTKSFNRGEC
2 |  |  | 101 control=100 | 52.4 control=100 | GpH7-A5/GpH7-B3 variant A330_03V/GpL16-k0 (antibody, human IgG1, kappa, He Ab: alteration in one H chain only; also called He Ab) heavy 1: not shown heavy 2: not shown light: DIVMTQSPLSLPVTPGEPASISCQASESLVHSNRNTYLHWYLQKPGQSPQLLIYKVSNRFSGVPDRFSGSGSGTDFTLKISRVEAEDVGVYYCSQNTHVPPTFGQGTKVEIERTVAAPSVFIFPPSDEQLKSGTASVVCLLNNFYPREAKVQWKVDNALQSGNSQESVTEQDSKDSTYSLSSTLTLSKADYEKHKVYACEVTHQGLSSPVTKSFNRGEC
3 |  |  | 147 control=100 | 92.8 control=100 | GpH7-A5/GpH7-B3 variant A330_04F/GpL16-k0 (antibody, human IgG1, kappa, He Ab: alteration in one H chain only; also called He Ab) heavy 1: not shown heavy 2: not shown light: DIVMTQSPLSLPVTPGEPASISCQASESLVHSNRNTYLHWYLQKPGQSPQLLIYKVSNRFSGVPDRFSGSGSGTDFTLKISRVEAEDVGVYYCSQNTHVPPTFGQGTKVEIERTVAAPSVFIFPPSDEQLKSGTASVVCLLNNFYPREAKVQWKVDNALQSGNSQESVTEQDSKDSTYSLSSTLTLSKADYEKHKVYACEVTHQGLSSPVTKSFNRGEC

The remaining lines, values behind:

Row | Binder | He/Con_1a (FcγRIa) | He/Con_2b (FcγRIIb) | He/Con_3a [1] | He/Con_2b [2]
4 | GpH7-A5/GpH7-B3 variant (L235_03V)/GpL16-k0 (antibody, human IgG1, kappa, IgG1 heterodimer, mutation in the GpH7-B3 chain only; also called He Ab) heavy 1: not shown heavy 2: not shown light: DIVMTQSPLSLPVTPGEPASISCQASESLVHSNRNTYLHWYLQKPGQSPQLLIYKVSNRFSGVPDRFSGSGSGTDFTLKISRVEAEDVGVYYCSQNTHVPPTFGQGTKVEIERTVAAPSVFIFPPSDEQLKSGTASVVCLLNNFYPREAKVQWKVDNALQSGNSQESVTEQDSKDSTYSLSSTLTLSKADYEKHKVYACEVTHQGLSSPVTKSFNRGEC | 94.7 relative, HeCon Ab = 100 | 66.4 relative, HeCon Ab = 100 |  | 
5 | GpH7-A5/GpH7-B3 variant (S267_16H)/GpL16-k0 (antibody, human IgG1, kappa, IgG1 heterodimer, mutation in the GpH7-B3 chain only; also called He Ab) heavy 1: not shown heavy 2: not shown light: DIVMTQSPLSLPVTPGEPASISCQASESLVHSNRNTYLHWYLQKPGQSPQLLIYKVSNRFSGVPDRFSGSGSGTDFTLKISRVEAEDVGVYYCSQNTHVPPTFGQGTKVEIERTVAAPSVFIFPPSDEQLKSGTASVVCLLNNFYPREAKVQWKVDNALQSGNSQESVTEQDSKDSTYSLSSTLTLSKADYEKHKVYACEVTHQGLSSPVTKSFNRGEC | 100 relative, HeCon Ab = 100 | 65.9 relative, HeCon Ab = 100 |  | 
6 | GpH7-A5/GpH7-B3 variant (L235_11K)/GpL16-k0 (antibody, human IgG1, kappa, IgG1 heterodimer, mutation in the GpH7-B3 chain only; also called He Ab) heavy 1: not shown heavy 2: not shown light: DIVMTQSPLSLPVTPGEPASISCQASESLVHSNRNTYLHWYLQKPGQSPQLLIYKVSNRFSGVPDRFSGSGSGTDFTLKISRVEAEDVGVYYCSQNTHVPPTFGQGTKVEIERTVAAPSVFIFPPSDEQLKSGTASVVCLLNNFYPREAKVQWKVDNALQSGNSQESVTEQDSKDSTYSLSSTLTLSKADYEKHKVYACEVTHQGLSSPVTKSFNRGEC | 79.9 relative, HeCon Ab = 100 | 6.3 relative, HeCon Ab = 100 |  | 
7 | GpH7-A5/GpH7-B3 variant (P271_02A)/GpL16-k0 (antibody, human IgG1, kappa, IgG1 heterodimer, mutation in the GpH7-B3 chain only; also called He Ab) heavy 1: not shown heavy 2: not shown light: DIVMTQSPLSLPVTPGEPASISCQASESLVHSNRNTYLHWYLQKPGQSPQLLIYKVSNRFSGVPDRFSGSGSGTDFTLKISRVEAEDVGVYYCSQNTHVPPTFGQGTKVEIERTVAAPSVFIFPPSDEQLKSGTASVVCLLNNFYPREAKVQWKVDNALQSGNSQESVTEQDSKDSTYSLSSTLTLSKADYEKHKVYACEVTHQGLSSPVTKSFNRGEC | 104 relative, HeCon Ab = 100 | 88 relative, HeCon Ab = 100 |  | 
8 | GpH7-A5/GpH7-B3 variant (P271_04F)/GpL16-k0 (antibody, human IgG1, kappa, IgG1 heterodimer, mutation in the GpH7-B3 chain only; also called He Ab) heavy 1: not shown heavy 2: not shown light: DIVMTQSPLSLPVTPGEPASISCQASESLVHSNRNTYLHWYLQKPGQSPQLLIYKVSNRFSGVPDRFSGSGSGTDFTLKISRVEAEDVGVYYCSQNTHVPPTFGQGTKVEIERTVAAPSVFIFPPSDEQLKSGTASVVCLLNNFYPREAKVQWKVDNALQSGNSQESVTEQDSKDSTYSLSSTLTLSKADYEKHKVYACEVTHQGLSSPVTKSFNRGEC | 102 relative, HeCon Ab = 100 | 59.5 relative, HeCon Ab = 100 |  | 
9 | GpH7-A5/GpH7-B3 variant (P271_03V)/GpL16-k0 (antibody, human IgG1, kappa, IgG1 heterodimer, mutation in the GpH7-B3 chain only; also called He Ab) heavy 1: not shown heavy 2: not shown light: DIVMTQSPLSLPVTPGEPASISCQASESLVHSNRNTYLHWYLQKPGQSPQLLIYKVSNRFSGVPDRFSGSGSGTDFTLKISRVEAEDVGVYYCSQNTHVPPTFGQGTKVEIERTVAAPSVFIFPPSDEQLKSGTASVVCLLNNFYPREAKVQWKVDNALQSGNSQESVTEQDSKDSTYSLSSTLTLSKADYEKHKVYACEVTHQGLSSPVTKSFNRGEC | 102 relative, HeCon Ab = 100 | 74.8 relative, HeCon Ab = 100 |  | 
